Measured values reported in patent US7399752.

Biological target: LS-Rg, chimeric protein of the extracellular domain of human L-selectin joined to the Fc domain of a human G2 immunoglobulin (human) (UniProt P14151)
Experiment: competition with radio-labeled 2'-F RNA ligand LF1807 for purified LS-Rg

LS-Rg, chimeric protein of the extracellular domain of human L-selectin joined to the Fc domain of a human G2 immunoglobulin (human), sequence (P14151 39-332, change not shown): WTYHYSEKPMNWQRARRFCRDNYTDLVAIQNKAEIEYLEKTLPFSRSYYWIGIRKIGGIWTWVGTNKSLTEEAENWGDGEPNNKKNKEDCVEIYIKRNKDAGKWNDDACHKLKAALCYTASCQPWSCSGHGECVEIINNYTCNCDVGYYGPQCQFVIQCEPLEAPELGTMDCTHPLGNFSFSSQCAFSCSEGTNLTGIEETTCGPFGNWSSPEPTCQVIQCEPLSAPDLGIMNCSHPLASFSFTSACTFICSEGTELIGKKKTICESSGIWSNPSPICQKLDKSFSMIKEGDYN

concentration at which inhibition was complete: 300 nM
Substance: DREG-56, L-selectin specific blocking monoclonal antibody
